Consider eight molecules from patent publication US20220389118A1 (Chugai, published 2022).

Like-named read-outs stand apart in the source and are kept apart here.

Assay [1] addresses T1, human FcγRIIa type R (R131) extracellular domain with C-terminal His tag (human, UniProt P12318 34-217).
T1 construct: extracellular domain; also called FcγRIIaR; not shown: His tag at the C terminus
T1 sequence (looked up): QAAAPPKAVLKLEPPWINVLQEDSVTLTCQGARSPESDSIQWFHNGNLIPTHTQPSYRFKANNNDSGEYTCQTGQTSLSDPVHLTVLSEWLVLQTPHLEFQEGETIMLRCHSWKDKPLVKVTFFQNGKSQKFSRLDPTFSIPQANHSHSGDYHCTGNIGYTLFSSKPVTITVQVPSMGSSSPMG
The assay can be described thus: SPR (Biacore); KD of IL6R-B3/IL6R-L divided by KD of this antibody. On the technique in general: SPR reads the build-up and loss of mass on a sensor chip optically.

The target of assay [2] is T2, human FcγRIIb extracellular domain with C-terminal His tag (human, UniProt P31994 43-217).
T2 construct: extracellular domain; not shown: His tag at the C terminus
T2 sequence (looked up): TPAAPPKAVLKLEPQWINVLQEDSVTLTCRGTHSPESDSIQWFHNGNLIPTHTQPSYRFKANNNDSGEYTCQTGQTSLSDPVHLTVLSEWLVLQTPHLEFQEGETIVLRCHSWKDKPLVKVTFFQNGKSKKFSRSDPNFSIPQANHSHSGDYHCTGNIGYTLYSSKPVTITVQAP
Described as above.

Assay [3] concerns the target T1, human FcγRIIa type R (R131) …. The assay can be described thus: SPR (Biacore), antibody captured, FcγR analyte.
Assay [4] addresses T2, human FcγRIIb extracellular domain with …. In words: SPR (Biacore), antibody captured, FcγR analyte.
The target of assay [5] is T3, human FcγRIa extracellular domain with C-terminal His tag (human, UniProt P12314 16-292).
T3 construct: not shown: His tag at the C terminus
In words: SPR (Biacore), antibody captured, FcγR analyte.

For assay [6], the target named is T2, human FcγRIIb extracellular domain with …. The assay can be described thus: SPR (Biacore); KD for FcγRIIaR divided by KD for FcγRIIb.
The target of assay [7] is T4, human FcγRIIa type R extracellular domain with C-terminal His tag (human, UniProt P12318 34-217).
T4 construct: extracellular domain; also called FcγRIIaR; FcγRIIa R
T4 sequence (looked up): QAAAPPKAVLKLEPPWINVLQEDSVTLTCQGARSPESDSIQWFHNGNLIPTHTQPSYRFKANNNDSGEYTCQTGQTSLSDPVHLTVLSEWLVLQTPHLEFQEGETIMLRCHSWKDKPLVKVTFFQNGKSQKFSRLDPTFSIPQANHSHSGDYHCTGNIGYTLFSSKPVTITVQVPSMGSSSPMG
The assay can be described thus: SPR, Ref. Ex. 25.

Assay [8] has as its target T5, human FcγRIIa type H extracellular domain with C-terminal His tag (human, UniProt P12318 34-217).
T5 construct: extracellular domain; also called FcγRIIaH; FcγRIIa H
T5 sequence (looked up): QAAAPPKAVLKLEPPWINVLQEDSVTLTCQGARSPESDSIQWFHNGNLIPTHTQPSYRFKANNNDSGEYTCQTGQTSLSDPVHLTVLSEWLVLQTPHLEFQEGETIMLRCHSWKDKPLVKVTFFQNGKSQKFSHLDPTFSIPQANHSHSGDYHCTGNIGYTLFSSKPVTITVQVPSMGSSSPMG
The assay can be described thus: SPR, Ref. Ex. 25.

The target of assay [9] is T6, human FcγRIIIa type V extracellular domain with C-terminal His tag (human, UniProt P08637 17-208).
T6 construct: extracellular domain; also called FcγRIIIaV; FcγRIIIa V type
In words: SPR, Ref. Ex. 25.

Assay [10] addresses T1, human FcγRIIa type R (R131) …. In words: SPR (Biacore), antibody captured, FcγR analyte. This is another data set of the same source.
The target of assay [11] is T2, human FcγRIIb extracellular domain with …. In words: SPR (Biacore), antibody captured, FcγR analyte. The source holds these as a separate data set.
Assay [12] concerns the target T7, human FcγRIIa type H (H131) extracellular domain with C-terminal His tag (human, UniProt P12318 34-217).
T7 construct: extracellular domain; also called FcγRIIaH; not shown: His tag at the C terminus
T7 sequence (looked up): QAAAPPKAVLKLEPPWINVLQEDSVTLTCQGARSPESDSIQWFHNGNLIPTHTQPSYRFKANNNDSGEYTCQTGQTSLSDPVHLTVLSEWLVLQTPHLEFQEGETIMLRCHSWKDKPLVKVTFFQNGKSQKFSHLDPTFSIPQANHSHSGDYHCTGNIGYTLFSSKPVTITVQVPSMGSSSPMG
In words: SPR (Biacore), antibody captured, FcγR analyte.

The target of assay [13] is T8, human FcγRIIIa type V (V158) extracellular domain with C-terminal His tag (human, UniProt P08637 17-208).
T8 construct: extracellular domain; also called FcγRIIIaV; not shown: His tag at the C terminus
The assay can be described thus: SPR (Biacore), antibody captured, FcγR analyte.

The target in assay [14] is T3, human FcγRIa extracellular domain with …. In words: SPR (Biacore), antibody captured, FcγR analyte. The source holds these as a separate data set.
Assay [15] has the same target. In words: SPR (Biacore), antibody captured, FcγR analyte. The source holds these as a separate data set.

T3 sequence (P12314 16-292): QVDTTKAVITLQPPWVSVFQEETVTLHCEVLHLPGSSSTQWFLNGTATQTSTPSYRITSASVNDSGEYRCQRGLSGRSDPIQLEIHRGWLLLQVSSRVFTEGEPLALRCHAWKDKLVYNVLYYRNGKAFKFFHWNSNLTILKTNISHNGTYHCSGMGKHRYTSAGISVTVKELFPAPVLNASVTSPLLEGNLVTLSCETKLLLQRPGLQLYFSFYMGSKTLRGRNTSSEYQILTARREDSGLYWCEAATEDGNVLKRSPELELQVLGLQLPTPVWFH
T6 sequence (P08637 17-208 F176V): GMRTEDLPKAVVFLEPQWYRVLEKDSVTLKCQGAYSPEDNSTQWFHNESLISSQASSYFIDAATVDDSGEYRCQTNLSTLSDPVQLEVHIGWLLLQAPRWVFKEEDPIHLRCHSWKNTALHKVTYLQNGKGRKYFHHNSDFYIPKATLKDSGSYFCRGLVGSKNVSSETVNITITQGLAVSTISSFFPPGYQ
T8 sequence (P08637 17-208 F176V): as above

B1: IL6R-BP478/IL6R-L (antibody)
heavy: QVQLQESGPGLVKPSETLSLTCAVSGHSISHDHAWSWVRQPPGEGLEWIGFISYSGITNYNPSLQGRVTISRDNSKNTLYLQMNSLRAEDTAVYYCARSLARTTAMDYWGEGTLVTVSSASTKGPSVFPLAPCSRSTSESTAALGCLVKDYFPEPVTVSWNSGALTSGVHTFPAVLQSSGLYSLSSVVTVPSSSLGTKTYTCNVDHKPSNTKVDKRVESKYGPPCPPCPAPDLLGDDSVFLFPPKPKDTLMISRTPEVTCVVVDVSDEDGEVKFNWYVDGVEVHNAKTKPREEQDNSTYRVVSVLTVLHQDWLNGKEYKCKVSNKALPRPIEKTISKAKGQPREPQVYTLPPSRDELTKNQVSLTCLVKGFYPSDIAVEWESNGQPENNYKTTPPVLDSDGSFFLYSKLTVDKSRWQQGNVFSCSVMHEALHNHYTQESLSLSP
light: not shown
notes: copies: 2 + 2
Consider B1, for which the “KD(IIaR) of parent polypeptide/KD(IIaR) of altered polypeptide” value in assay [1] was found to be 2. Also, the “KD(IIb) of parent polypeptide/KD(IIb) of altered polypeptide” value in assay [2] was determined as 161. For the same molecule, the Kd in [3] stood at 0.54 µM; in assay [4], 0.019 µM; in assay [5] it was 0.0077 µM. Also, in assay [6], the “KD(IIaR)/KD(IIb)” value was 28.

B2: IL6R-PD087/IL6R-L (antibody, human IgG1, kappa)
heavy: QVQLQESGPGLVKPSETLSLTCAVSGHSISHDHAWSWVRQPPGEGLEWIGFISYSGITNYNPSLQGRVTISRDNSKNTLYLQMNSLRAEDTAVYYCARSLARTTAMDYWGEGTLVTVSSASTKGPSVFPLAPSSKSTSGGTAALGCLVKDYFPEPVTVSWNSGALTSGVHTFPAVLQSSGLYSLSSVVTVPSSSLGTQTYICNVNHKPSNTKVDKKVEPKSCDKTHTCPPCPAPELLGMDSVFLFPPKPKDTLYISRTPEVTCVVVDVSHEDPEVKFNWYVDGVEVHNAKTKPREEQYNSTYRVVSVLTVLHQDWLNGKEYKCKVSNKALPAPIEKTISKAKGQPREPQVYTLPPSRDELTKNQVSLTCLVKGFYPSDIAVEWESNGQPENNYKTTPPVLDSDGSFFLYSKLTVDKSRWQQGNVFSCSVMHEALHYHYTQKSLSLSP
light: not shown
notes: also called P238D/G237M; G237M/P238D; copies: 2 + 2
As for B2, the Kd in [7] is 22 µM; in assay [8], 20 µM; in assay [9], 37 µM.

B3: IL6R-BP469/IL6R-L (antibody, human IgG1, kappa)
heavy: QVQLQESGPGLVKPSETLSLTCAVSGHSISHDHAWSWVRQPPGEGLEWIGFISYSGITNYNPSLQGRVTISRDNSKNTLYLQMNSLRAEDTAVYYCARSLARTTAMDYWGEGTLVTVSSASTKGPSVFPLAPSSKSTSGGTAALGCLVKDYFPEPVTVSWNSGALTSGVHTFPAVLQSSGLYSLSSVVTVPSSSLGTQTYICNVNHKPSNTKVDKKVEPKSCDKTHTCPPCPAPDLLGDDSVFLFPPKPKDTLMISRTPEVTCVVVDVSDEDGEVKFNWYVDGVEVHNAKTKPREEQDNSTYRVVSVLTVLHQDWLNGKEYKCKVSNKALPRPISKTISKAKGQPREPQVYTLPPSRDELTKNQVSLTCLVKGFYPSDIAVEWESNGQPENNYKTTPPVLDSDGSFFLYSKLTVDKSRWQQGNVFSCSVMHEALHNHYTQESLSLSP
light: not shown
notes: E333S introduced into IL6R-BP230; copies: 2 + 2
The molecule B3 had a Kd in assay [10] of 0.6 µM.

B4: IL6R-BP468/IL6R-L (antibody, human IgG1, kappa)
heavy: QVQLQESGPGLVKPSETLSLTCAVSGHSISHDHAWSWVRQPPGEGLEWIGFISYSGITNYNPSLQGRVTISRDNSKNTLYLQMNSLRAEDTAVYYCARSLARTTAMDYWGEGTLVTVSSASTKGPSVFPLAPSSKSTSGGTAALGCLVKDYFPEPVTVSWNSGALTSGVHTFPAVLQSSGLYSLSSVVTVPSSSLGTQTYICNVNHKPSNTKVDKKVEPKSCDKTHTCPPCPAPDLLGDDSVFLFPPKPKDTLMISRTPEVTCVVVDVSDEDGEVKFNWYVDGVEVHNAKTKPREEQDNSTYRVVSVLTVLHQDWLNGKEYKCKVSNKALPRPIETTISKAKGQPREPQVYTLPPSRDELTKNQVSLTCLVKGFYPSDIAVEWESNGQPENNYKTTPPVLDSDGSFFLYSKLTVDKSRWQQGNVFSCSVMHEALHNHYTQESLSLSP
light: not shown
notes: copies: 2 + 2
Molecule B4 yielded a Kd in assay [11] of 0.04 µM. This counts as double-digit nanomolar.

B5: IL6R-BP470/IL6R-L (antibody, human IgG1, kappa)
heavy: QVQLQESGPGLVKPSETLSLTCAVSGHSISHDHAWSWVRQPPGEGLEWIGFISYSGITNYNPSLQGRVTISRDNSKNTLYLQMNSLRAEDTAVYYCARSLARTTAMDYWGEGTLVTVSSASTKGPSVFPLAPSSKSTSGGTAALGCLVKDYFPEPVTVSWNSGALTSGVHTFPAVLQSSGLYSLSSVVTVPSSSLGTQTYICNVNHKPSNTKVDKKVEPKSCDKTHTCPPCPAPDLLGDDSVFLFPPKPKDTLMISRTPEVTCVVVDVSDEDGEVKFNWYVDGVEVHNAKTKPREEQDNSTYRVVSVLTVLHQDWLNGKEYKCKVSNKALPRPITKTISKAKGQPREPQVYTLPPSRDELTKNQVSLTCLVKGFYPSDIAVEWESNGQPENNYKTTPPVLDSDGSFFLYSKLTVDKSRWQQGNVFSCSVMHEALHNHYTQESLSLSP
light: not shown
notes: E333T introduced into IL6R-BP230; copies: 2 + 2
For the molecule B5, in assay [12], the Kd amounted to 10 µM.

B6: IL6R-BP462/IL6R-L (antibody, human IgG1, kappa)
heavy: QVQLQESGPGLVKPSETLSLTCAVSGHSISHDHAWSWVRQPPGEGLEWIGFISYSGITNYNPSLQGRVTISRDNSKNTLYLQMNSLRAEDTAVYYCARSLARTTAMDYWGEGTLVTVSSASTKGPSVFPLAPSSKSTSGGTAALGCLVKDYFPEPVTVSWNSGALTSGVHTFPAVLQSSGLYSLSSVVTVPSSSLGTQTYICNVNHKPSNTKVDKKVEPKSCDKTHTCPPCPAPDLLGDDSVFLFPPKPKDTLMISRTPEVTCVVVDVAEEDGEVKFNWYVDGVEVHNAKTKPREEQYNSTYRVVSVLTVLHQDWLNGKEYKCKVSNKALPRPIEKTISKAKGQPREPQVYTLPPSRDELTKNQVSLTCLVKGFYPSDIAVEWESNGQPENNYKTTPVVLDSDGSFFLYSKLTVDKSRWQQGNVFSCSVMHEALHNHYTQESLSLSP
light: not shown
notes: P396V introduced into IL6R-BP423; copies: 2 + 2
Consider B6, for which, in [13], the Kd was found to be 9 µM.

B7: IL6R-BP384/IL6R-L (antibody, human IgG1, kappa)
heavy: QVQLQESGPGLVKPSETLSLTCAVSGHSISHDHAWSWVRQPPGEGLEWIGFISYSGITNYNPSLQGRVTISRDNSKNTLYLQMNSLRAEDTAVYYCARSLARTTAMDYWGEGTLVTVSSASTKGPSVFPLAPSSKSTSGGTAALGCLVKDYFPEPVTVSWNSGALTSGVHTFPAVLQSSGLYSLSSVVTVPSSSLGTQTYICNVNHKPSNTKVDKKVEPKSCDKTHTCPPCPAPDLLGDDSVFLFPPKPKDTLMISRTPEVTCVVVDVSDEDGEVKFNWYVDGVEVHNAKTKPREEQDNSTYRVVSVLTVLHQDWLNGKEYKCKVSNKALPRPIERTISKAKGQPREPQVYTLPPSRDELTKNQVSLTCLVKGFYPSDIAVEWESNGQPENNYKTTPPVLDSDGSFFLYSKLTVDKSRWQQGNVFSCSVMHEALHNHYTQESLSLSP
light: not shown
notes: K334R introduced into IL6R-BP230; copies: 2 + 2
As for B7, the affinity in assay [14], expressed as Kd, was 0.003 µM.

B8: IL6R-BP267/IL6R-L (antibody, human IgG1, kappa)
heavy: QVQLQESGPGLVKPSETLSLTCAVSGHSISHDHAWSWVRQPPGEGLEWIGFISYSGITNYNPSLQGRVTISRDNSKNTLYLQMNSLRAEDTAVYYCARSLARTTAMDYWGEGTLVTVSSASTKGPSVFPLAPSSKSTSGGTAALGCLVKDYFPEPVTVSWNSGALTSGVHTFPAVLQSSGLYSLSSVVTVPSSSLGTQTYICNVNHKPSNTKVDKKVEPKSCDKTHTCPPCPAPDLLGDDSVFLFPPKPKDTLMISRTPEVTCVVVDVSEEDGEVKFNWYVDGVEVHNAKTKPREEQYNSTYRVVSVLTVLHQDWLNGKEYKCKVSNKALPAPIEKTISKAKGQPREPQVYTLPPSRDELTKNQVSLTCLVKGFYPSDIAVEWESNGQPENNYKTTPPVLDSDGSFFLYSKLTVDKSRWQQGNVFSCSVMHEALHNHYTQESLSLSP
light: not shown
notes: alterations counted against IL6R-B3; copies: 2 + 2
B8 came in with a Kd in [15] of 0.004 µM.

The Kd is the concentration at which binding is half-saturated.
